Test results: FireProtDB (doi:10.1016/j.jmb.2011.02.053)

B1: Guanyl-specific ribonuclease Sa, P05798 (parent)
chain: DVSGTVCLSALPPEATDTLNLIASDGPFPYSQDGVVFQNRESVLPTQSYGYYHEYTVITPGARTRGTRRIITGEATQEDYYTGDHYATFSLIDQTC

Variants of: B1
Settings: Kitasatospora aureofaciens; pH 7; Thermal; Fluorescence; MOPS 30mM; transition: 2; reversible: yes; structure 1RGG; whole UniProt chain shown

DVSGTVCLSALPPEATDTLNLIASDGPFPYSQDGVVFQNRESVLPTQSYGYYHEYTVITPGARTRGTRRIITGEATQEDYYTGDHYATFSLVDQTC [I92V]
change of melting temperature, mutant - wild type (higher = more stable): -3.9 °C
ddG of mutation (higher = less stable): 1 kcal/mol
unfolding enthalpy (calorimetric): 84 kcal/mol

DVSGTVCLSALPPEATDTLNLIASDGPFPYSQDGVVFQNRESVLPTQSYGYYHEYTVITPGARTRGTRRIVTGEATQEDYYTGDHYATFSLIDQTC [I71V]
change of melting temperature, mutant - wild type (higher = more stable): -0.3 °C
ddG of mutation (higher = less stable): 0.13 kcal/mol
unfolding enthalpy (calorimetric): 80 kcal/mol

DVSGTVCLSALPPEATDTLNLIASDGPFPYSQDGVVFQNRESVLPTQSYGYYHEYTVITPGARTRGTRRVITGEATQEDYYTGDHYATFSLIDQTC [I70V]
change of melting temperature, mutant - wild type (higher = more stable): -3.4 °C
ddG of mutation (higher = less stable): 0.94 kcal/mol
unfolding enthalpy (calorimetric): 87 kcal/mol

DVSGTVCLSALPPEATDTLNLVASDGPFPYSQDGVVFQNRESVLPTQSYGYYHEYTVITPGARTRGTRRIITGEATQEDYYTGDHYATFSLIDQTC [I22V]
change of melting temperature, mutant - wild type (higher = more stable): -5.7 °C
ddG of mutation (higher = less stable): 1.48 kcal/mol
unfolding enthalpy (calorimetric): 74 kcal/mol

DVSGTVCLSALPPEATDTLNLIASDGPFPYSQDGVVFQNRESVLPTQSYGYYHEYTVITPGARTRGTRRIITGEATQEDYYTGDHYATFSAIDQTC [L91A]
change of melting temperature, mutant - wild type (higher = more stable): -3.2 °C
ddG of mutation (higher = less stable): 0.84 kcal/mol
unfolding enthalpy (calorimetric): 91 kcal/mol

DVSGTVCASALPPEATDTLNLIASDGPFPYSQDGVVFQNRESVLPTQSYGYYHEYTVITPGARTRGTRRIITGEATQEDYYTGDHYATFSLIDQTC [L8A]
change of melting temperature, mutant - wild type (higher = more stable): -5 °C
ddG of mutation (higher = less stable): 1.34 kcal/mol
unfolding enthalpy (calorimetric): 89 kcal/mol

DVSGTVCLSALPPEATDTLNAIASDGPFPYSQDGVVFQNRESVLPTQSYGYYHEYTVITPGARTRGTRRIITGEATQEDYYTGDHYATFSLIDQTC [L21A]
change of melting temperature, mutant - wild type (higher = more stable): -1.6 °C
ddG of mutation (higher = less stable): 0.41 kcal/mol
unfolding enthalpy (calorimetric): 85 kcal/mol

DVSGTVCLSALPPEATDTLNLIASDGPFPYSQDGVVFQNRESVLPTQSYGYYHEYTVVTPGARTRGTRRIITGEATQEDYYTGDHYATFSLIDQTC [I58V]
change of melting temperature, mutant - wild type (higher = more stable): 0.11 °C
ddG of mutation (higher = less stable): 0 kcal/mol
unfolding enthalpy (calorimetric): 89 kcal/mol

DVSGTVCLSALPPEATDTANLIASDGPFPYSQDGVVFQNRESVLPTQSYGYYHEYTVITPGARTRGTRRIITGEATQEDYYTGDHYATFSLIDQTC [L19A]
change of melting temperature, mutant - wild type (higher = more stable): -13.8 °C
ddG of mutation (higher = less stable): 3.65 kcal/mol
unfolding enthalpy (calorimetric): 73 kcal/mol
